Laboratory results: patent US20050244864A1, “Development and use of fluorescent probes of unbound analytes” (priority 2004, published 2005)

Tests used:
[1] = Probe calibration: binding affinities for fatty acids
Method: In a preferred embodiment, the template FABP is recombinant rat intestinal fatty acid binding protein (rI-FABP). Derivatization with acrylodan is performed using known methods substantially as previously described (U.S. Pat. No. 5,470,714 & Richieri, G. V, et al., J. Biol. Chem., (1992) 276: 23495-23501), and the resulting probe (ADIFAB) is commercially available (FFA Sciences LLC, San Diego, Calif.). […] The wavelength emitted by the fluorescently-labeled FABP depends upon the label and protein used. In an alternate preferred embodiment, the template protein is rI-FABP that has Ala substituted for Leu at position 72 (rI-FABP-L72A) with the resulting probe named ADIFAB2. […] Experiments typically involve measuring the fluorescence response within both emission maxima or at wavelengths for which the effect of interfering molecules such as hemoglobin can be eliminated as described in (U.S. application Ser. No. 10/670,958 and PCT/US2004/030521) and the calculation of the ratio ‘R’ of the two fluorescence intensities. The baseline value for this ratio, measured in the absence of analyte, is designated R0.
For each probe considered to have a useful phenotype, the sequence is determined, milligram quantities of the probe are prepared and the probe is calibrated. […] Spectra of probes were analyzed for true ratio behavior. […]

[2] = Screening of FFA-insensitive probes for response to UCB:BSA complexes (ΔI/Io); format: binding; settings: fractional change in fluorescence intensity
Method: A probe for unbound unconjugated bilirubin (UCBu) was developed and used to measure concentrations of UCBu in plasma spiked with a defined quantity of unconjugated bilirubin (UCB). Using 384-well plates, 335 mutant probes that were insensitive to FFA were screened for their response to UCB:BSA complexes at UCB:BSA ratios of 1:1 and 1:2 in aqueous buffer. All probes were prepared from rI-FABP-L72A with 1 to 5 mutations. Screening was conducted by comparing the fractional change in fluorescence intensity (ΔI/Io, where ΔI is the difference in probe intensity in the presence and absence of UCB and Io is the intensity in the absence of UCB) for the probes with that for ADIFAB2. This value was calculated for two emission wavelengths: 440 and 500 nm. […] The emitted fluorescence of these probes is quenched by binding of UCB.

B1: ADIFAB2: rI-FABP with Ala substituted for Leu at position 72 (rI-FABP-L72A), derivatized with acrylodan; reference probe (protein, UniProt P02693 2-132, looked up, variant L72A)
Fatty acid-binding protein, …: AFDGTWKVDRNENYEKFMEKMGINVVKRKLGAHDNLKLTITQEGNKFTVKESSNFRNIDVVFELGVDFAYSAADGTELTGTWTMEGNKLVGKFKRVDNGKELIAVREISGNELIQTYTYEGVEAKRIFKKE
modifications: acrylodan label
With B1 the “binding affinities relative to ADIFAB” value [1] was “about 10 fold”, the “ΔI/Io 1:1 UCB:BSA 440 nm” value ([2]; UCB:BSA 1:1, emission 440 nm) was −0.40 and the “ΔI/Io 1:1 UCB:BSA 500 nm” value ([2]; UCB:BSA 1:1, emission 500 nm) was −0.34. The “ΔI/Io 1:2 UCB:BSA 440 nm” value ([2]; UCB:BSA 1:2, emission 440 nm) was −0.19 and the “ΔI/Io 1:2 UCB:BSA 500 nm” value ([2]; UCB:BSA 1:2, emission 500 nm) was −0.16.
